Experiment [1] has as its target peptide FLEEL.
In experiment [2] the target is T1, bovine vitamin K-dependent carboxylase (94,000 Mr protein from bovine liver microsomes) (bovine) (UniProt Q07175).
T1 sequence: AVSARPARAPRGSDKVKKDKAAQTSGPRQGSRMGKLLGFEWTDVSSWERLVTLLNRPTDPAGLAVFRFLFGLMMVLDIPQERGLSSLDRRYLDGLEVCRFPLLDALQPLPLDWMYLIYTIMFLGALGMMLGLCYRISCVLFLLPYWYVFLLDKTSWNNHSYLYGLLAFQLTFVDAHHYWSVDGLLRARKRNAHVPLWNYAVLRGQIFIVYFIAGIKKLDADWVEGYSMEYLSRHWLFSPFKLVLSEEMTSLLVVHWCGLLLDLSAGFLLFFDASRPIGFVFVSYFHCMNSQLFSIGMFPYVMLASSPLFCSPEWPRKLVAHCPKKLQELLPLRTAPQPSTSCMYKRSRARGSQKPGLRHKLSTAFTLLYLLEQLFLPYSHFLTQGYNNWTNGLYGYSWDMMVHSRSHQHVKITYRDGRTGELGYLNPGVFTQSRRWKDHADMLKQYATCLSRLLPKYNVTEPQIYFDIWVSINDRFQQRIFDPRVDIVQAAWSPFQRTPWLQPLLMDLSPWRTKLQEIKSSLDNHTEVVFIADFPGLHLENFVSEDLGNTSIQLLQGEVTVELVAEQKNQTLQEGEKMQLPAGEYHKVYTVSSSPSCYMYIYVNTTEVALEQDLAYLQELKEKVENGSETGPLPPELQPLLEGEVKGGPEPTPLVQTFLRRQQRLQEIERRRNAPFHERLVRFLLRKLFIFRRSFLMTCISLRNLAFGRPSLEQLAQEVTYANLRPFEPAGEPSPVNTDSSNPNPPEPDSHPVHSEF

The target of experiment [3] is T2, bovine vitamin K-dependent carboxylase (94,000 Mr protein from bovine liver microsomes) (bovine, UniProt Q07175).
T2 sequence: T1 sequence
Kind of experiment: competition of cross-linking of 125I-FIXQ/S to the carboxylase, 100-fold excess of proFIX19. The text has this:
In order to evaluate the binding specificity of FIXQ/S and attain an independent estimate of the molecular weight of the carboxylase, we cross-linked ^125I-FIXQ/S to 60-fold affinity-purified material (FIG. 1, lane 3). […] The minor bands in lane 2 were unaffected by competition (lane 1). By subtracting the molecular weight of FIXQ/S (7,000 M_r) from the estimated size of the cross-linked complex we estimate that the size of the protein to which the FIXQ/S peptide binds is approximately 94,000 M_r.

Consider “bovine vitamin K-dependent carboxylase (94,000 Mr protein from bovine liver microsomes) (from UniProt Q07175) (enzyme)”, for which, in experiment [1], the specific activity, 14CO2 incorporation into FLEEL (cpm/mg protein/hr) worked out at 2.4e+09. For AVFLDHENANKILNRPKRY [Peptide proFIX19], in experiment [2], the stimulation of the incorporation of CO2 into FLEEL came out at 13 fold. Further, the binding result in experiment [3] is reported as “binds”.
